Consider one molecule from publication PMC7418704 (2020).

This test deals with Monomeric human ACE2 (19-615), Fc tag removed by thrombin (human, UniProt Q9BYF1 19-615). As to the kind of experiment: BLI. In general terms: In BLI a coated tip is dipped into the sample, and binding shifts an interference pattern.

In general, Kd refers to the equilibrium constant for the complex coming apart.

Monomeric human ACE2 (19-615), Fc tag removed by thrombin, sequence (Q9BYF1 19-615): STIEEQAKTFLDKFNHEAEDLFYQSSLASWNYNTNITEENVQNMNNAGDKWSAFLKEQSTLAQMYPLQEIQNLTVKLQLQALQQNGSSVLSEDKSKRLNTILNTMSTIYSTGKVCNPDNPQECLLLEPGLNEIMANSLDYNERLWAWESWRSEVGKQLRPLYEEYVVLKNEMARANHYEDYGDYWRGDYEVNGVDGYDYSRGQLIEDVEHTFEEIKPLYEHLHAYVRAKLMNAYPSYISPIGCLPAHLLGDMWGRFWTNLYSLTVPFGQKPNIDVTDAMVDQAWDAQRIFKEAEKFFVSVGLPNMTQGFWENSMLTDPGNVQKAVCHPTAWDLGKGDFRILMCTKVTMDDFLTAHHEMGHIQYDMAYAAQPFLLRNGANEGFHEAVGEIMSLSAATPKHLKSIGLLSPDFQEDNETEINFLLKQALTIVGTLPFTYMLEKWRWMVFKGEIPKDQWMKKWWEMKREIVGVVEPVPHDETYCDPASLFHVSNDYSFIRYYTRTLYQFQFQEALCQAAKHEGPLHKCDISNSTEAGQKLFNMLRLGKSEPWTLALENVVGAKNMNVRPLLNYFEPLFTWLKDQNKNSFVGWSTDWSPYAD

B1: SARS-CoV-1 RBD (306-575), mammalian-expressed, purified (domain or fragment)
chain: not shown
Molecule B1 registered a dissociation constant Kd of 0.575 µM.
